Earlier results, collected in paper PMC5290461.

Target: integrin beta1A cytoplasmic tail (Homo sapiens) (UniProt P05556)
Test: NMR

Sequence of UniProt P05556 (P05556 752-798): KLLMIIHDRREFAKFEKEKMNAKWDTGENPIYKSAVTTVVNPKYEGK

Substance	Kd
talin1 F3 (from UniProt P26039)	491 µM
talin2 F3 (from UniProt Q71LX4)	652 µM
